The target in data set [1] is T1, TRMT10C (MRPP1) (Homo sapiens, UniProt Q7L0Y3 40-403).
T1 sequence: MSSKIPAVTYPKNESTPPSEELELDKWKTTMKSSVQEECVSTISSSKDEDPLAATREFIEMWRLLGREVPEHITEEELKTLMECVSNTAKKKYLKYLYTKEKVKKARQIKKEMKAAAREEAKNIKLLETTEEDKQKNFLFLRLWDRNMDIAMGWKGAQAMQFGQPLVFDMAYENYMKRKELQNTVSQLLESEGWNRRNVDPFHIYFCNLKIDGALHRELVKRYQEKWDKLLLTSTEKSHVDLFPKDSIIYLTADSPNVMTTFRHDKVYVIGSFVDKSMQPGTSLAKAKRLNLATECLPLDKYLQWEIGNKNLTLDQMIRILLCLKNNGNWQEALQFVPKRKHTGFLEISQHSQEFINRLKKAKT
The data set can be described thus: BLI; no Mg2+; BLI (BLItz, streptavidin sensors): 50 mM Tris-Cl pH 8, 20 mM NaCl, 2 mM DTT, 20 ug/ml BSA, 0.5 U/ul RNase inhibitor, 0.05% Tween-20, with (Lys) or without 4.5 mM MgCl2, 21 C. To be noted: protein: recombinant; tags: C-terminal myc-His6; chain copies: 2; label: 3' biotin (pCp-biotin); tRNA cloverleaf. On the technique in general: BLI is a label-free optical method that tracks binding on a fibre tip over time.

The target of data set [2] is T2, PRORP (MRPP3) (Homo sapiens, UniProt O15091 46-583).
T2 sequence: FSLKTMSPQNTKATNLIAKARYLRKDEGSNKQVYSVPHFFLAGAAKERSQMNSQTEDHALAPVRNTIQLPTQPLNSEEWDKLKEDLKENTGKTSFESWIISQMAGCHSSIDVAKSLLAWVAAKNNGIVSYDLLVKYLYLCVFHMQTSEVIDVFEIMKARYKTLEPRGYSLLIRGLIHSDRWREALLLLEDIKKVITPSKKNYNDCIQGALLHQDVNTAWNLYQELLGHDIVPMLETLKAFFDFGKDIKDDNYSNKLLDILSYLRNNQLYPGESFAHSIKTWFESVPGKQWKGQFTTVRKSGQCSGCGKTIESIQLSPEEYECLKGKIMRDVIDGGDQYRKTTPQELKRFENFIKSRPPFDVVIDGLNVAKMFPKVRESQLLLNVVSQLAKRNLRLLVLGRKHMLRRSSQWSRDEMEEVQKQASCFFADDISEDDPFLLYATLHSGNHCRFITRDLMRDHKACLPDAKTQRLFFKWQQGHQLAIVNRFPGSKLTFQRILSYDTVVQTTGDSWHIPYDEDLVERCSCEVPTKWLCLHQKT
The description is as above. To be noted: protein: recombinant; tags: C-terminal His6; label: 3' biotin (pCp-biotin); tRNA cloverleaf.

Data set [3] has as its target T3, TRMT10C (MRPP1);SDR5C1 (MRPP2, HSD17B10) (Homo sapiens;Homo sapiens, UniProt Q7L0Y3;Q99714 40-403;1-261, |).
T3 sequence 1: T1 sequence
T3 sequence 2: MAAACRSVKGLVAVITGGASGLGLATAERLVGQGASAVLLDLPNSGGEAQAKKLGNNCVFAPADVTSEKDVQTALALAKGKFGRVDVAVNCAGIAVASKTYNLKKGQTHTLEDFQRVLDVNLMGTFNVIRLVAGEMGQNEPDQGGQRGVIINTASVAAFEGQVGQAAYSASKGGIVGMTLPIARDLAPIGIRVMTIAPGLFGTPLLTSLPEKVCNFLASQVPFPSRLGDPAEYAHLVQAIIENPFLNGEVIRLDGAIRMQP
The description is as above. As to conditions: protein: recombinant;recombinant; tags: C-terminal myc-His6;N-terminal His6; copies: 1;4; label: 3' biotin (pCp-biotin); tRNA cloverleaf.

Data set [4] has as its target T4, SDR5C1 (MRPP2, HSD17B10) (Homo sapiens, UniProt Q99714 1-261).
T4 sequence: T3 sequence 2
Put plainly: BLI; no Mg2+; up to 1 uM SDR5C1; BLI (BLItz, streptavidin sensors): 50 mM Tris-Cl pH 8, 20 mM NaCl, 2 mM DTT, 20 ug/ml BSA, 0.5 U/ul RNase inhibitor, 0.05% Tween-20, with (Lys) or without 4.5 mM MgCl2, 21 C. As to conditions: protein: recombinant; tags: N-terminal His6; chain copies: 4; label: 3' biotin (pCp-biotin); tRNA cloverleaf.

Data set [5] concerns the target T1, TRMT10C (MRPP1). The data set can be described thus: BLI; 4.5 mM Mg2+; BLI (BLItz, streptavidin sensors): 50 mM Tris-Cl pH 8, 20 mM NaCl, 2 mM DTT, 20 ug/ml BSA, 0.5 U/ul RNase inhibitor, 0.05% Tween-20, with (Lys) or without 4.5 mM MgCl2, 21 C. To be noted: protein: recombinant; tags: C-terminal myc-His6; chain copies: 2; label: 3' biotin (pCp-biotin); tRNA cloverleaf.

The target in data set [6] is T2, PRORP (MRPP3). The data set is described as above. To be noted: protein: recombinant; tags: C-terminal His6; label: 3' biotin (pCp-biotin); tRNA cloverleaf.
For data set [7], the target named is T3, TRMT10C (MRPP1);SDR5C1 (MRPP2, HSD17B10). Described as above. To be noted: protein: recombinant;recombinant; tags: C-terminal myc-His6;N-terminal His6; copies: 1;4; label: 3' biotin (pCp-biotin); tRNA cloverleaf.
For data set [8], the target named is T4, SDR5C1 (MRPP2, HSD17B10). Put plainly: BLI; 4.5 mM Mg2+; up to 1 uM SDR5C1; BLI (BLItz, streptavidin sensors): 50 mM Tris-Cl pH 8, 20 mM NaCl, 2 mM DTT, 20 ug/ml BSA, 0.5 U/ul RNase inhibitor, 0.05% Tween-20, with (Lys) or without 4.5 mM MgCl2, 21 C. As to conditions: protein: recombinant; tags: N-terminal His6; chain copies: 4; label: 3' biotin (pCp-biotin); tRNA cloverleaf.

B1: pre-tRNAVal, 3'-biotinylated (structured_RNA)
RNA: UGCACUUGGACGAACCAGAGUGUAGCUUAACACAAAGCACCCAACUUACACUUAGGAGAUUUCAACUUAACUUGACCGCUCUGAGCUAAACCUAGCCCCAAACCCACUCCACCUUA
modifications: splint ligation of synthetic RNA (15 nt 5' flank + tRNA nt 1-8) to transcript of 1610-1702; 3' pCp-biotin adds a C
As a reminder, the Kd is the free concentration of one partner at which half of the binding sites on the other are occupied at equilibrium, for simple one-to-one binding. B1: the equilibrium dissociation constant (Kd) stood at 20 nM with TRMT10C (MRPP1) [1], 18 nM with PRORP (MRPP3) [2] and 13 nM in data set [3]. For the same molecule, the binding result with SDR5C1 (MRPP2, HSD17B10) [4] was “no binding”.

B2: pre-tRNALys, 3'-biotinylated (structured_RNA)
RNA: ACCCCCUCUAGAGCCCACUGUAAAGCUAACUUAGCAUUAACCUUUUAAGUUAAAGAUUAAGAGAACCAACACCUCUUUACAGUGAAAUGCCCCAAC
modifications: splint ligation of synthetic RNA (15 nt 5' flank + tRNA nt 1-8) to transcript of 8303-8375; 3' pCp-biotin adds a C
B2: the Kd worked out at 30 nM with TRMT10C (MRPP1) [5], 26 nM in the data set with PRORP (MRPP3) [6] and 4 nM in data set [7]. The binding result with SDR5C1 (MRPP2, HSD17B10) [8] is given as “no binding”.

The record behind these values is paper PMC10602865, “Cleavage kinetics of human mitochondrial RNase P and contribution of its non-nuclease subunits”.
